Reference: patent US5717058, “Peptide inhibitors of tax-dependent transcription” (Somatogen, Inc.)

Assays:
CREB = CREB (UniProt P16220 P16220:1-327); experiment: EMSA; 3.4 nM CREB, 0.5 nM probe, 10 ng poly dIdC, 75 mM KCl, 6.25 mM MgCl2, room temp; reference without Tax; settings: tags: heparin-agarose purified, prepared per Franklin et al. 1993; chain copies: 2; label: 32P end-label; cloned into pUC19 Bgl II site, 70 bp Kpn I-Hind III fragment used as probe
[1] = target: CREB + Tax (HTLV-I Tax enhances CREB binding) (/ HTLV-I, UniProt P16220;P03409 P16220:1-327,P03409:1-353); experiment: EMSA; settings: tags: Tax carries C-terminal His6 (TaxH6); label: 32P end-label; cloned into pUC19 Bgl II site, 70 bp Kpn I-Hind III fragment used as probe
CREB + Tax (HTLV-I Tax enhances CREB binding), sequence (P16220 whole entry, chain 1 of 2, the tested form may be a part): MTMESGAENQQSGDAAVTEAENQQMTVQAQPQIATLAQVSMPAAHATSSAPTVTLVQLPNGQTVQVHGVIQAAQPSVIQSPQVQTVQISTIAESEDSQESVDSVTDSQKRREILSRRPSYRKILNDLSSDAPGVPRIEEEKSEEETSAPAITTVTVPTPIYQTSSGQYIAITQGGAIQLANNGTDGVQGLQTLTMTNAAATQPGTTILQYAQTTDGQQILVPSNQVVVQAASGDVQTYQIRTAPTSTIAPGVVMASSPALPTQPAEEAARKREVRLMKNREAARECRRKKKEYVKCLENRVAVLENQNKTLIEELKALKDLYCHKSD
CREB + Tax (HTLV-I Tax enhances CREB binding), sequence (P03409 whole entry, chain 2 of 2, the tested form may be a part): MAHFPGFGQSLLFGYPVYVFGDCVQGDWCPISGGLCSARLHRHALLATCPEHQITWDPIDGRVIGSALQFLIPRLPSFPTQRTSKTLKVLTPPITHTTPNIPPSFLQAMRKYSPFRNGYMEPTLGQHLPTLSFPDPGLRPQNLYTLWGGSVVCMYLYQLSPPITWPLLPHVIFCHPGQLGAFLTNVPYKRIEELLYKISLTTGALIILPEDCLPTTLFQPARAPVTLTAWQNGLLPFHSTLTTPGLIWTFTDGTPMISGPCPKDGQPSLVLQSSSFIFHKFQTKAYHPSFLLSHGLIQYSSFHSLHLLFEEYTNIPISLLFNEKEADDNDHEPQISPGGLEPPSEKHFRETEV

CREB, sequence (P16220 whole entry, the tested form may be a part, one chain of several): as the sequence (P16220 whole entry, chain 1 of 2, the tested form may be a part) above

B1: HTLV-I third 21 bp repeat (site 3 probe) (dsDNA)
DNA 1: GATCTGGCGTTGACGACAACCCCA
DNA 2: TGGGGTTGTCGTCAACGCCAGATC
CREB
  binding signal: 1 fold
[1]
  binding signal: 3.9 fold
